Changes are numbered by the printed parent chain.
T1: MERS Receptor Binding Domain (RBD) protein (Middle East Respiratory Syndrome (MERS) …, UniProt K9N5Q8 367-606)
T1 construct: also called Middle East Respiratory Syndrome (MERS) virus
T1 sequence: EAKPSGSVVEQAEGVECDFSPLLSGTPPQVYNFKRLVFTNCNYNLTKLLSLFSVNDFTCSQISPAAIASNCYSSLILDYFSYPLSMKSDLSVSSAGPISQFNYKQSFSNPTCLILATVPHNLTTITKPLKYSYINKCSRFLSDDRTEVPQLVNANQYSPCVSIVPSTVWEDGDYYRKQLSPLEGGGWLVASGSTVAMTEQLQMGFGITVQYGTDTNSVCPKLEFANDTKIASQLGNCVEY

B1: COVID19_P21_F11 (scFv, V domains shown)
VH: QVQLVQSGAEVKKPGSSVKVSCKASGGTFSSYAISWVRQAPGQGLEWMGIIYPGDSTARYSQKFQGRVTITADESTSTAYMELSSLRSEDTAVYYCAGGSGISTLYDVWGQGTLVTVSS
VL: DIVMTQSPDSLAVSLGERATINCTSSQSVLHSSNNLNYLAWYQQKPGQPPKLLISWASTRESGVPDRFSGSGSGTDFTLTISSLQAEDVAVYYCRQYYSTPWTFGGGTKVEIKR
B2: COVID19_P09_E11 (scFv, V domains shown)
VH: B1 VH with S31N, Y32H, P41Y, S56G, A58T, L105P, Y106M
VL: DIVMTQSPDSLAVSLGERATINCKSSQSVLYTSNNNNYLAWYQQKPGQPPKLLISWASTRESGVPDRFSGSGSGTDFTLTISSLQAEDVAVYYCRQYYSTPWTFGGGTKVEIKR
B3: COVID19_P21_F04 (scFv, V domains shown)
VH: B1 VH with I50Q, Y52N, G54S, D55G, S56D, T57S, A58T, S61A, L105P, Y106M
VL: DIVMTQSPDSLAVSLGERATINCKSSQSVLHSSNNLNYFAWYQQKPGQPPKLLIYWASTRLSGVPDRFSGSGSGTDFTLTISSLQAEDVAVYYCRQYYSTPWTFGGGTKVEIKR
B4: COVID19_P09_G02 (scFv, V domains shown)
VH: B1 VH with A58T, R59N, G99H, S100W, L105P, Y106M
VL: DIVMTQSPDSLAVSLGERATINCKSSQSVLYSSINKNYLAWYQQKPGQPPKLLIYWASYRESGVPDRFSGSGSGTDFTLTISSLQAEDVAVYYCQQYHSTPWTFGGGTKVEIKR
B5: COVID19_P22_B12 (scFv, V domains shown)
VH: B1 VH with F29L, T57E, A58T, L105P, Y106R, D107S
VL: DIVMTQSPDSLAVSLGERATINCKSSRILSYSPDNKNYLAWYQQKPGQPPKLLIYWASTRESGVPDRFSGSGSGTDFTLTISSLQAEDVAVYYCQQSYITPYTFGGGTKVEIKR
B6: COVID19_P10_B06 (scFv, V domains shown)
VH: B1 VH with A58T, A97Y, G98S, L105P, Y106M
VL: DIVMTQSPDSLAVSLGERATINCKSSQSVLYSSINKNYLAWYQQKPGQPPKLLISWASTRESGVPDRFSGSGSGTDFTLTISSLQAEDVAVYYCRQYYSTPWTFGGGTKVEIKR
B7: COVID19_P21_E12 (scFv, V domains shown)
VH: QVQLVQSGAEVKKPGSSVKVSCKASGGTFISYAISWVRQAPGQGLEWMGGIIPTLGTYNYAQKFQGRVTITADESTSTAYMELSSLRSEDTAVYYCAGSWGISTPMDVWGQGTLVTVSS
VL: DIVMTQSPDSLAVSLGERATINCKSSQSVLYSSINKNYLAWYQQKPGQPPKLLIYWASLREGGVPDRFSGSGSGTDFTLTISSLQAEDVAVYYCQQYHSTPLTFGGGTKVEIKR
B8: COVID19_P09_B07 (scFv, V domains shown)
VH: B7 VH with I30S, Y58A
VL: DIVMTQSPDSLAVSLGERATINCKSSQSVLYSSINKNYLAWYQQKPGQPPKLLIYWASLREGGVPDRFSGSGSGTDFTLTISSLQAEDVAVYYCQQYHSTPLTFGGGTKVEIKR
B9: COVID19_P09_E05 (scFv, V domains shown)
VH: B1 VH with A58T, A97Y, G98S, L105P, Y106M
VL: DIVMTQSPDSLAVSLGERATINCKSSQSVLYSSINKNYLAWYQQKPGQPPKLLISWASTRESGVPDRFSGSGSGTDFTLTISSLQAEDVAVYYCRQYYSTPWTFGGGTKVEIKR
B10: COVID19_P09_H08 (scFv, V domains shown)
VH: B7 VH with I30S, T54I, L55F, Y58T, S99E
VL: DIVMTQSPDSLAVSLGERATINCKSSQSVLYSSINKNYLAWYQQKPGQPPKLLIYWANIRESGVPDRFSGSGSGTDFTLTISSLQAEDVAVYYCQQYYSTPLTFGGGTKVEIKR
B11: COVID19_P21_B09 (scFv, V domains shown)
VH: B1 VH with G27Y, S30T, S31G, Y32H, A33Y, I34M, S35H, T57E, L105P, Y106M
VL: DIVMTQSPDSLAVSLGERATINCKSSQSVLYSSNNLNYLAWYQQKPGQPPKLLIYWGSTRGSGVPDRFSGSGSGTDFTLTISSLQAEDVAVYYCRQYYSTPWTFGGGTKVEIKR
B12: COVID19_P09_A09 (scFv, V domains shown)
VH: B1 VH with A58T, A97Y, G98S, L105P, Y106M
VL: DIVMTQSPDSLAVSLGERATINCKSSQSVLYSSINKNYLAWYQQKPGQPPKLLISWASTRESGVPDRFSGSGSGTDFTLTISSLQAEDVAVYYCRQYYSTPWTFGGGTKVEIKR
B13: COVID19_P09_C09 (scFv, V domains shown)
VH: QVQLVQSGAEVKKPGSSVKVSCKASGGTFSSYAISWVRQAPGQGLEWMGIIDPSGGSTSYAQQFQGRVTITADESTSTAYMELSSLRSEDTAVYYCAGGSGISTPMDVWGQGTLVTVSS
VL: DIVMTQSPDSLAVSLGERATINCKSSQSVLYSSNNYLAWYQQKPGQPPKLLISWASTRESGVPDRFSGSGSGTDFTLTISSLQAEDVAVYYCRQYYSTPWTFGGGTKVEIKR
B14: COVID19_P21_B08 (scFv, V domains shown)
VH: B13 VH with I50V, D52N, P53T, S54G, T58V, S59T, Q63K, G99H, S100W
VL: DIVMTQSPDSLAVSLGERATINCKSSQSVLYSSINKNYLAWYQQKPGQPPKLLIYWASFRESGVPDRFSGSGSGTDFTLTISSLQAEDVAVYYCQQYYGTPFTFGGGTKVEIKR
B15: COVID19_P21_F08 (scFv, V domains shown)
VH: QVQLVQSGAEVKKPGSSVKVSCKASGGTFSTYAFNWVRQAPGQGLEWMGVINTGGGSVTYAQKFQGRVTITADESTSTAYMELSSLRSEDTAVYYCAGGSGISTPGAVWGQGTLVTVSS
VL: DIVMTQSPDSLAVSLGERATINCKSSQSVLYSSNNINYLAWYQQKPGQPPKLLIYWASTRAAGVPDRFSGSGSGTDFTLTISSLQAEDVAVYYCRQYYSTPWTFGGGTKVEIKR
B16: COVID19_P22_F07 (scFv, V domains shown)
VH: QVQLVQSGAEVKKPGSSVKVSCKASGGTFSSYAISWVRQAPGQGLEWMGGIIPIFGSTASYAQKFQGRVTITADESTSTAYMELSSLRSEDTAVYYCAGEWGISTPMDVWGQGTLVTVSS
VL: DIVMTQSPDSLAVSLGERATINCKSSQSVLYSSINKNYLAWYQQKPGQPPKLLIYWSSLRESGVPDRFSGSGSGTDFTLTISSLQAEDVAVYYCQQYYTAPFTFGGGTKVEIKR
B17: COVID19_P21_H01 (scFv, V domains shown)
VH: QVQLVQSGAEVKKPGSSVKVSCKASGYGFSTYWIGWVRQAPGQGLEWMGWINPNSGGTNYAQKFQGRVTITADESTSTAYMELSSLRSEDTAVYYCAGGSGISTPMDVWGQGTLVTVSS
VL: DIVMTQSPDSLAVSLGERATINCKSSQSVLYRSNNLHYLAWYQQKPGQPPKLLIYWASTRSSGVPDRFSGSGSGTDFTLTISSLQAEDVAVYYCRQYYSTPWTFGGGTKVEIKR
B18: COVID19_P22_H10 (scFv, V domains shown)
VH: B17 VH with Y27G, M48V, G57A, N59K
VL: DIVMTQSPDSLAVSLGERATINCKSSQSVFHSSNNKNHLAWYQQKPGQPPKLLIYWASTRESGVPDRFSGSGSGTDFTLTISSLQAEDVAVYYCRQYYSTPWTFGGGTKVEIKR
B19: COVID19_P09_B10 (scFv, V domains shown)
VH: QVQLVQSGAEVKKPGSSVKVSCKASGYSFTDYHIHWVRQAPGQGLEWMAMIVPRGGSTTYAQKFQGRVTITADESTSTAYMELSSLRSEDTAVYYCAGGSGISTPMDVWGQGTLVTVSS
VL: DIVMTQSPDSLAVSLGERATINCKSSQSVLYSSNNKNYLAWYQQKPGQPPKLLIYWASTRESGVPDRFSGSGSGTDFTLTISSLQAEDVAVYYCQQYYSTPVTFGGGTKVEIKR
B20: COVID19_P22_E12 (scFv, V domains shown)
VH: B7 VH with I30S, S35N, T54V, G56H, Y58V, N59D, K63R, F64L, S99E
VL: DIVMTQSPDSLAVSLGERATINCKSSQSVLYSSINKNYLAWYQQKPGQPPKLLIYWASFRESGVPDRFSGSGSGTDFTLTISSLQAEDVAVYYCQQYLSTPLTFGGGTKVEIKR
B21: COVID19_P21_A12 (scFv, V domains shown)
VH: B7 VH with I30S, G50S, I51V, T54V, L55F, T57R, Y58P, S99E
VL: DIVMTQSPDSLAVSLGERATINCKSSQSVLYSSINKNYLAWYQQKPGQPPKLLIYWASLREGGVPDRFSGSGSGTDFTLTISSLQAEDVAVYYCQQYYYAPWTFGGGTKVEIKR
B22: COVID19_P10_A09 (scFv, V domains shown)
VH: QVQLVQSGAEVKKPGSSVKVSCKASGYTFTDYYIHWVRQAPGQGLEWMGWMNPNSGNTGYAQNFQGRVTITADESTSTAYMELSSLRSEDTAVYYCAGGSGISTAWDVWGQGTLVTVSS
VL: DIVMTQSPDSLAVSLGERATIRCTSSLSLQDRSNNKNYLTWYQQKPGQPPKLLIYWASTRESGVPDRFSGSGSGTDFTLTISSLQAEDVAVYYCQQHYSAPLTFGGGTKVEIKR

Legend:
[1] = target: T1, MERS Receptor Binding Domain (RBD) …; test: SPR Carterra LSA, scFv captured via anti-V5
[2] = target: T2, SARS-CoV-1 Receptor Binding Domain (RBD) protein (SARS-CoV-1, UniProt P59594 306-527); test: SPR Carterra LSA, scFv captured via anti-V5
T2 construct: also called SARS1

[3] = target: SARS-CoV-2 Receptor Binding Domain (RBD) protein (SARS-CoV-2, UniProt P0DTC2 319-541); test: SPR Carterra LSA, scFv captured via anti-V5, 1:1 fit

Binder	binding result [1]	binding result [2]	Kd [3] [nM]	koff [3] [s⁻¹]
B1	no binding (tested: 300 nM)	no binding (tested: 300 nM)	1.1	5.7e-05
B2	no binding (tested: 300 nM)	no binding (tested: 300 nM)		
B3	no binding (tested: 300 nM)	no binding (tested: 300 nM)		
B4	no binding (tested: 300 nM)	no binding (tested: 300 nM)		
B5	no binding (tested: 300 nM)	no binding (tested: 300 nM)		
B6	no binding (tested: 300 nM)	no binding (tested: 300 nM)		
B7	no binding (tested: 300 nM)	no binding (tested: 300 nM)		
B8	no binding (tested: 300 nM)	no binding (tested: 300 nM)		
B9	no binding (tested: 300 nM)	no binding (tested: 300 nM)		
B10	no binding (tested: 300 nM)	no binding (tested: 300 nM)		
B11	no binding (tested: 300 nM)	no binding (tested: 300 nM)		
B12	no binding (tested: 300 nM)	no binding (tested: 300 nM)		
B13	no binding (tested: 300 nM)	no binding (tested: 300 nM)		
B14	no binding (tested: 300 nM)	no binding (tested: 300 nM)		
B15	no binding (tested: 300 nM)	no binding (tested: 300 nM)		
B16	no binding (tested: 300 nM)	no binding (tested: 300 nM)		
B17	no binding (tested: 300 nM)	no binding (tested: 300 nM)		
B18	no binding (tested: 300 nM)	no binding (tested: 300 nM)		
B19	no binding (tested: 300 nM)	no binding (tested: 300 nM)		
B20	no binding (tested: 300 nM)	no binding (tested: 300 nM)		
B21	no binding (tested: 300 nM)	no binding (tested: 300 nM)		
B22	no binding (tested: 300 nM)	no binding (tested: 300 nM)		

— US20240270825A1 (CENTIVAX, published 2024)
